Literature values as cited in article PMC7527559.
Read-outs that look alike come from different tables or passages of the source.

Columns and labels:
[1] = molecular target: RNA polymerase (Escherichia coli) (UniProt P0A7Z4)
[2] = molecular target: RNA polymerase (Escherichia coli) (UniProt P0A7Z4); remark: listed apart in the source

GreA, sequence (P0A6W5 whole entry): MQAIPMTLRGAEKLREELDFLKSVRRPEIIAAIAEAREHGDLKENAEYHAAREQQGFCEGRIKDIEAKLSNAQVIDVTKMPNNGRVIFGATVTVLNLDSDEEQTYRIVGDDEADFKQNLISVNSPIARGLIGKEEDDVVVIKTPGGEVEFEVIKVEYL
DksA, sequence (P0ABS1 whole entry): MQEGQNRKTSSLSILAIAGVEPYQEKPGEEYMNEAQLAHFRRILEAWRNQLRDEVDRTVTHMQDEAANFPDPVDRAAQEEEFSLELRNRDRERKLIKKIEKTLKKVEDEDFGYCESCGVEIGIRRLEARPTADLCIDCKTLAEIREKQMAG

Substance	Kd [1]	Kd [2]
DksA (from UniProt P0ABS1)	100 nM	
GreA (from UniProt P0A6W5)		800 nM
